{"source": "patent US9629804B2", "about": "“Lipid formulations for delivery of messenger RNA” (Shire Human Genetic Therapies, Inc., priority 2013, dated 2017)", "test_system": "BHK-21 cells", "assay": "hSMN-1 western blot of BHK-21 cells transfected with hSMN mRNA", "assay_type": "cell-based", "details": "one microgram mRNA, Lipofectamine 2000, 16-18 hours post-transfection", "method": "Standard western blot procedures were followed employing various antibodies that recognizes hSMN protein, such as: (A) anti-SMN 4F11 antibody at 1:1,000 dilution; (B) Pierce PA5-27309a-SMN antibody at 1:1,000 dilution; and (C) LSBio C138149a-SMN antibody at 1:1,000 dilution. For each experiment one microgram of hSMN mRNA was transfected into ˜1×10^6 BHK-21 cells using Lipofectamine 2000. Cells were treated with OptiMem and harvested 16-18 hours post-transfection. Cell lysates were harvested, processed and loaded on to an 8-16% Tris Glycine gel. The gel was transferred using a PVDF membrane and treated with the respective primary antibody. Goat anti-mouse HRP antibody was used as the secondary antibody at 1:10,000 dilution for 45 minutes at room temperature followed by washing and development."}
{"molecule": "hSMN mRNA: codon-optimized human Survival of Motor Neuron-1 messenger RNA (SEQ ID NO: 4), in vitro transcribed, Cap 1, poly(A) tail (nucleic acid, Cap 1, poly(A) tail) GGACAGAUCGCCUGGAGACGCCAUCCACGCUGUUUUGACCUCCAUAGAAGACACCGGGACCGAUCCAGCCUCCGCGGCCGGGAACGGUGCAUUGGAACGCGGAUUCCCCGUGCCAAGAGUGACUCACCGUCCUUGACACGAUGGCCAUGAGCAGCGGAGGCAGCGGCGGAGGAGUGCCCGAGCAGGAGGACAGCGUGCUGUUCAGGAGAGGCACCGGCCAGAGCGAUGACAGCGAUAUCUGGGACGAUACCGCUCUGAUCAAGGCCUACGACAAGGCCGUGGCCAGCUUCAAGCACGCCCUGAAAAACGGCGACAUCUGCGAGACCAGCGGCAAGCCCAAGACAACCCCCAAGAGAAAGCCCGCCAAGAAGAAUAAGAGCCAGAAAAAGAACACCGCCGCCAGCCUGCAGCAGUGGAAGGUGGGCGACAAGUGCAGCGCCAUCUGGAGCGAGGACGGCUGCAUCUACCCCGCCACCAUCGCCAGCAUCGACUUCAAGAGAGAGACCUGCGUGGUCGUGUACACCGGCUACGGCAACAGAGAGGAGCAGAACCUGAGCGACCUGCUGAGCCCCAUUUGUGAGGUGGCCAAUAACAUCGAACAGAACGCCCAGGAGAACGAGAAUGAAAGCCAGGUGAGCACCGACGAGAGCGAGAACAGCAGAUCUCCUGGCAACAAGAGCGACAACAUCAAGCCUAAGUCUGCCCCUUGGAACAGCUUCCUGCCCCCUCCUCCACCCAUGCCCGGACCCAGACUGGGACCCGGAAAACCUGGCCUGAAGUUCAACGGACCACCUCCCCCUCCACCUCCUCCCCCACCUCAUCUCCUGAGCUGCUGGCUGCCACCCUUCCCCAGCGGACCCCCUAUCAUCCCACCACCCCCUCCCAUCUGCCCCGACAGCCUGGACGACGCCGAUGCCCUGGGCAGCAUGCUGAUCAGCUGGUACAUGAGCGGCUACCACACAGGAUACUACAUGGGCUUCAGACAGAACCAGAAGGAGGGCAGAUGCUCCCACUCCCUGAACUGACGGGUGGCAUCCCUGUGACCCCUCCCCAGUGCCUCUCCUGGCCCUGGAAGUUGCCACUCCAGUGCCCACCAGCCUUGUCCUAAUAAAAUUAAGUUGCAUCAAAGCU", "values": [{"measurement": "western blot signal for hSMN-1 protein in transfected BHK-21 cells", "value": "strong signal for hSMN-1"}]}
